Data on three molecules can be found in PMC10116596 (Biochemistry, 2023).

One assay concerns the target LcrH. Also on record: method as in PMID 23233673. The note with it: unbound chaperone weak homodimer; read-out: dimerization KD; cited from earlier work.
In assay [1] the target is T1, LcrH_(1–168), class II chaperone LcrH from Y. pestis (Y. pestis, UniProt P21207 1-168).
T1 construct: also called LcrH/SycD
T1 sequence: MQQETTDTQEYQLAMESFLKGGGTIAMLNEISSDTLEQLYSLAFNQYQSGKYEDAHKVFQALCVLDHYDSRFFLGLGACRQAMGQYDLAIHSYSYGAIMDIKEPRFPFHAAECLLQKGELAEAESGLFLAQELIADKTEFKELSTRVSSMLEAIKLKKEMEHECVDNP
Description: ITC. The note with it: both partners purified.

B1: LcrH: class II chaperone from Yersina Sp., forms weak homodimers when unbound (protein)
chain: T1 sequence
B1: on LcrH, the Kd is approximately 15 µM.
For the molecule QVPELIKPSQ (source: synthetic peptide) [YopD_(56–65) 10 mer N-terminal anchor peptide of the minor translocator YopD], in assay [1], the Kd amounted to 82 µM and the dH is -12.2 kcal/mol.
In the case of QGVQLPAPLA (source: synthetic peptide) [YopB_(48–57) 10 mer N-terminal anchor peptide of the major translocator YopB], in assay [1], the Kd amounted to 155 µM and the dH was -10.5 kcal/mol.
